Assays:
[1] = biological target: Collagen I (triple helix of two α1 chains and one α2 chain) (UniProt P02454); assay: SPR
[2] = biological target: Collagen I (triple helix of two α1 chains and one α2 chain) (UniProt P02454); assay: AFM adhesion force

Chain of Collagen I (triple helix of two α1 chains and one α2 chain) (P02454 152-1207, chain 1 of 2): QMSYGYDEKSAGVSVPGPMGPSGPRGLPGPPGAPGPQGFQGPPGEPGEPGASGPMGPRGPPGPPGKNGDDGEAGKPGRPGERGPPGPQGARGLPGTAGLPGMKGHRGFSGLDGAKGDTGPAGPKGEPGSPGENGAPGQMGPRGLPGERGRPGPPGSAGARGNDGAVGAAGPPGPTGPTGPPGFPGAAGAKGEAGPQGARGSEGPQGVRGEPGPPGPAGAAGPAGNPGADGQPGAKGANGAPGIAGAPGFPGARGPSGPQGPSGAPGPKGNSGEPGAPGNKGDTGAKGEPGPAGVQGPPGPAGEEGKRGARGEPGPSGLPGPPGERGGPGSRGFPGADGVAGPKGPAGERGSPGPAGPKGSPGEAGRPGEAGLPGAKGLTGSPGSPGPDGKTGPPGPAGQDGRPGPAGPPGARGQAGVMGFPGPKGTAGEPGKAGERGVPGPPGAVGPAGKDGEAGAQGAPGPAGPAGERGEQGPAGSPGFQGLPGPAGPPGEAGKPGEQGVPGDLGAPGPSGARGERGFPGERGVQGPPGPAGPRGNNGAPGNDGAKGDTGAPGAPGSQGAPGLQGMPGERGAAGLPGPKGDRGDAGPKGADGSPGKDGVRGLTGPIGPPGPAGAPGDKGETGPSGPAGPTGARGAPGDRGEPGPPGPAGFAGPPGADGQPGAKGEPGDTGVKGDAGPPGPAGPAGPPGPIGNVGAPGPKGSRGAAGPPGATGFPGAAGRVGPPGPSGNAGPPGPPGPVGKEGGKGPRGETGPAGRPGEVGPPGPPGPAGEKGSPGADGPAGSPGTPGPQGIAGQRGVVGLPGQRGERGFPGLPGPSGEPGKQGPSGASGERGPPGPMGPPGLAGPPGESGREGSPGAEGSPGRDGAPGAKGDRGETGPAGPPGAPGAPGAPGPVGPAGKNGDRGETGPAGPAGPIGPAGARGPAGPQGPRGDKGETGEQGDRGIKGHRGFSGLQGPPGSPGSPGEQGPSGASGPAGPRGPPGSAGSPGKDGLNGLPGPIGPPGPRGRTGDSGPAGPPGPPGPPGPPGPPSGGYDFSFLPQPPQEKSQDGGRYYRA
Chain of Collagen I (triple helix of two α1 chains and one α2 chain) (P02466 86-1125, chain 2 of 2, further chain): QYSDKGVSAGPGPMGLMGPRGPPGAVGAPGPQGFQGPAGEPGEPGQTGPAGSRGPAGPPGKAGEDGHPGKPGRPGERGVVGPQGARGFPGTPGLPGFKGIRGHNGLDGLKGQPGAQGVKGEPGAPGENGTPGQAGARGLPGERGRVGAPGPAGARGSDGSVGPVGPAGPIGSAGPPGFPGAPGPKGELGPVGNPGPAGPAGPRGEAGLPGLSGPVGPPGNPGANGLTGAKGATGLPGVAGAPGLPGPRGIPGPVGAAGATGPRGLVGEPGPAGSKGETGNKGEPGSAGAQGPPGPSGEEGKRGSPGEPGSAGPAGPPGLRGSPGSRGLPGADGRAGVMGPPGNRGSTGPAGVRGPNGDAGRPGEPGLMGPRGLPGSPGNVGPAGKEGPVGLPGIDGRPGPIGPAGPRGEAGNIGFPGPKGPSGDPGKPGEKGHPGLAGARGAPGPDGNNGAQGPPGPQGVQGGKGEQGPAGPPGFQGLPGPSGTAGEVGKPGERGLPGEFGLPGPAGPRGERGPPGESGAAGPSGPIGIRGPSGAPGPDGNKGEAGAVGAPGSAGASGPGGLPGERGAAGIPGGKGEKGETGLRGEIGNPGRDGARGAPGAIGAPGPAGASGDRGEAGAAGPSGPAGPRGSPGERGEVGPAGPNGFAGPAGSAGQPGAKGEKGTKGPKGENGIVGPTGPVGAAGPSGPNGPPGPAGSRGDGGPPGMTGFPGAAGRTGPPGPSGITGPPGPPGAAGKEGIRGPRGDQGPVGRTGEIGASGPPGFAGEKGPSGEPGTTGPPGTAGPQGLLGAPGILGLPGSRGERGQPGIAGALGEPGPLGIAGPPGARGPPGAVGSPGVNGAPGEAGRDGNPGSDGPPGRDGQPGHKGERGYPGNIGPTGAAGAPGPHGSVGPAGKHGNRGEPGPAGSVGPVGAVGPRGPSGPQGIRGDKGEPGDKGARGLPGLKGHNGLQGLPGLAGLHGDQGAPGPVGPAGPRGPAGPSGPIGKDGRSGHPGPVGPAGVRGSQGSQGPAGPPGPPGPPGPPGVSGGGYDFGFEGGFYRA

- Kd [1]: 6.27 µM
- peak force (maximum unbinding force) [2]: 3.5 nN
Substance: Amylin1-37 (human islet amyloid polypeptide), recombinant, monomer (from UniProt P10997 34-70)

— article doi:10.1101/2024.08.10.607320
